Results on two molecules are retold here after patent US20150291681A1 (published 2015).

For test [1], the target named is T1, EGFP labeled Notch (Drosophila Notch stably expressed on S2 cells) (Drosophila, UniProt P07207 53-2703).
T1 construct: whole, on cells; how EGFP is joined to Notch is not described; also called Notch+EGFP; N+EGFP; not shown: EGFP label
The experiment in a line: S2 cell aggregation; Sertom DNA transfected into Notch-EGFP cells (cis), competitor of Sertom cells (trans). The method, then:
Stable lines of EGFP-labeled Notch cells were added to stable lines of tomato tagged Ser-expressing cells, allowed to mix for 24 hours at room temperature and were assayed for the formation of interacting cellular aggregates (Fehon et al., 1990, Cell 3:523-534). The Notch expressing cells were transiently transfected with tomato-tagged Ser DNA at concentrations ranging between 0.0 μg and 2.0 μg prior to mixing with Ser expressing cells to induce cis-inhibition by co-expressed Ser with Notch. When performed with wild type Ser DNA (A of this figure), effective inhibition of aggregation occurs in a dose dependent manner when the Ser expressing cells (Ser labeled columns) are mixed with the transfected Notch cells. When Ser expressing cells are not mixed with the transfected Notch cells (S2R+), self-aggregate formation is minimal.
S2 cells stably expressing tomato-tagged Ser (Sertom) were mixed with S2 cells stably expressing EGFP labeled Notch and allowed to aggregate with one another to determine baseline levels of Notch-Ser interactions (FIG. 6). Subsequent experiments transiently transfected the stable Notch EGFP line with either Sertom (wild type), SerDel6tom or SerDel3tom transgenes at varying concentrations to promote cis-inhibition within the Notch-expressing cells. […]

Test [2] has as its target T2, endogenous Drosophila Notch (wing imaginal disc) (Drosophila, UniProt P07207 53-2703).
T2 construct: whole, on cells; also called Notch receptor
The test can be described thus: summing-up sentence; inferred from trans-activation in wing discs and aggregation assays. The protocol:
To define potential inhibitory domains in the extracellular domain of the Notch ligands, a systematic deletion analysis of an extracellular region of the Drosophila Notch ligand Ser was performed. Ser has 14 ELRs in its extracellular domain (FIG. 4) and has been the ligand best explored for its inhibitory properties (Klein et al., 1997, Dev. Biol. 1:123-134; Li and Baker, 2004, BMC Dev. Biol. 5). […] Using the Gal4ptc promoter, the influence of ectopic Ser expression on Notch activity was measured by examining how it affects the expression of CUT, a transcriptional target of Notch signals and is a classic indicator of Notch activity in the dorsal/ventral boundary and ventral region of the wing disc (Doherty et al., 1996, Genes Dev. 4:421-434).
Ser constructs were expressed in the third instar imaginal wing disc via the ptc promoter using the Gal4 system (Brand and Perrimon, 1993, Development 2:401-415). Notch activity was assessed by examination of CUT expression induced in response to Notch activity (Neumann and Cohen, 1996, Development 11:3477-3485). […]

T2 sequence (P07207 53-2703): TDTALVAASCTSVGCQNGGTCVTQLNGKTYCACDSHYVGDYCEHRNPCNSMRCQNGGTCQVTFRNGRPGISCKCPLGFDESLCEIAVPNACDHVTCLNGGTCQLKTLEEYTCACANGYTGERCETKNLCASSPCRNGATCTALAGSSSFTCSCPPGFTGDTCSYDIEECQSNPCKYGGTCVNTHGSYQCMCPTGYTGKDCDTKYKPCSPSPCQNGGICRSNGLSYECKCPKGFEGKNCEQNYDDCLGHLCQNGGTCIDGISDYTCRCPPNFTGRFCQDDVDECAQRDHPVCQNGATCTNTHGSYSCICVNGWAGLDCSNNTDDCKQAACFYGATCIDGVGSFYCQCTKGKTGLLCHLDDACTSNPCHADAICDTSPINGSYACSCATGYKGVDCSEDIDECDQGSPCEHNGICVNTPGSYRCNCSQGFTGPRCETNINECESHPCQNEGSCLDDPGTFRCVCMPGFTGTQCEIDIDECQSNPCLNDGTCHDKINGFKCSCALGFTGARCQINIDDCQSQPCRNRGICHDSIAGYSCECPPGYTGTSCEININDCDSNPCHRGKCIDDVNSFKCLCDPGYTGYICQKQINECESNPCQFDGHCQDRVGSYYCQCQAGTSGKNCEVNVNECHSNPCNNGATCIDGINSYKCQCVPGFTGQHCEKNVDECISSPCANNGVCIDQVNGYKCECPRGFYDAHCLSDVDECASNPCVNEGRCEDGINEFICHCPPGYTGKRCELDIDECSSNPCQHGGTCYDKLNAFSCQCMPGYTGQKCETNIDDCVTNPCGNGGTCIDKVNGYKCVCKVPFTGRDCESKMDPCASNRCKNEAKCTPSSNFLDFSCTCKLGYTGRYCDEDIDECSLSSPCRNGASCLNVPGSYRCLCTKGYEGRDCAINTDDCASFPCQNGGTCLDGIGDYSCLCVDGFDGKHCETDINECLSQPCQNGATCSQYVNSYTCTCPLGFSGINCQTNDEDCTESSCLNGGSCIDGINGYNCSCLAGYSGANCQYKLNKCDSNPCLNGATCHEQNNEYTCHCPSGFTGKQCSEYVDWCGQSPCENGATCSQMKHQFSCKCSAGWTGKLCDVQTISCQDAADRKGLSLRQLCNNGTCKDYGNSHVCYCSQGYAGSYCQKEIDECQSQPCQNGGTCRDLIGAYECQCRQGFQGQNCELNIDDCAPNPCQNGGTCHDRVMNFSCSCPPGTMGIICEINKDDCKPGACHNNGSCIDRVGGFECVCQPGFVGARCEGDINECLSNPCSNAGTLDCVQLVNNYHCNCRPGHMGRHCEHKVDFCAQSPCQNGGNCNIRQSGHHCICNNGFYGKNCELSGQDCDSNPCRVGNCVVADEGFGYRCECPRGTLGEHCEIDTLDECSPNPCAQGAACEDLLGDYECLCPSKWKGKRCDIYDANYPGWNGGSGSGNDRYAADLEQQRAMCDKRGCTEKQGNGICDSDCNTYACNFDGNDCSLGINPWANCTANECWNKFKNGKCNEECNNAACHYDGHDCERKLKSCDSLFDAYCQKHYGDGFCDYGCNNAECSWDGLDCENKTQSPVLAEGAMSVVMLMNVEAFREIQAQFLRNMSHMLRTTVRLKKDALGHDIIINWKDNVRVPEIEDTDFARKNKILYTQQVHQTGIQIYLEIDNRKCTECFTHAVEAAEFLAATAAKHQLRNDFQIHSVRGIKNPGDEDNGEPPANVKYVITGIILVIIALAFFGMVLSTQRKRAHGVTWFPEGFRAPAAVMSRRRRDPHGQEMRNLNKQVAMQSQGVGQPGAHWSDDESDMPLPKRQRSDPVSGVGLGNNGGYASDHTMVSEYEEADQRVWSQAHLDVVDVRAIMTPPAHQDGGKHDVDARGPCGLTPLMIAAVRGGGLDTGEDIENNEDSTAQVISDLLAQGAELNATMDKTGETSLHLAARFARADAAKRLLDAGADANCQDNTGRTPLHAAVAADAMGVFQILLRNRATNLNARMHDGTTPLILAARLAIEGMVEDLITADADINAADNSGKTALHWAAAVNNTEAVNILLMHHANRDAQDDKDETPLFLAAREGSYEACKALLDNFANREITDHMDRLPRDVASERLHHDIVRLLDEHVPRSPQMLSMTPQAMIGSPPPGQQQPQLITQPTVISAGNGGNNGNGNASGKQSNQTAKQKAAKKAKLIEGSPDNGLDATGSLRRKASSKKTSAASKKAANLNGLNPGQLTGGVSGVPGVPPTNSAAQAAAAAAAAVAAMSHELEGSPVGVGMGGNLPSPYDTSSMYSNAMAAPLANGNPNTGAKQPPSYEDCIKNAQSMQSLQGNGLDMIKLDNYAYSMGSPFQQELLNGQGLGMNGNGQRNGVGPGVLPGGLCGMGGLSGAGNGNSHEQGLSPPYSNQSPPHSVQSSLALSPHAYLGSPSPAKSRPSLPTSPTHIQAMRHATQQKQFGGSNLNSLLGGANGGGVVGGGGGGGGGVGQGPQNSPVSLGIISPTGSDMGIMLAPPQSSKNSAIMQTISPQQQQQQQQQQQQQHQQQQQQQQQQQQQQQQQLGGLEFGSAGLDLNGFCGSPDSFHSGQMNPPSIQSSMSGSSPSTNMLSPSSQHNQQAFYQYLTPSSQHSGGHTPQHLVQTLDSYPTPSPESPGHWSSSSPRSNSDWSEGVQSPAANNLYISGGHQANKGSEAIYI
T1 sequence (P07207 53-2703): as above

B1: tomato-tagged Ser (Sertom), wild type Drosophila Serrate (ligand)
chain: GNFELEILEISNTNSHLLNGYCCGMPAELRATKTIGCSPCTTAFRLCLKEYQTTEQGASISTGCSFGNATTKILGGSSFVLSDPGVGAIVLPFTFRWTKSFTLILQALDMYNTSYPDAERLIEETSYSGVILPSPEWKTLDHIGRNARITYRVRVQCAVTYYNTTCTTFCRPRDDQFGHYACGSEGQKLCLNGWQGVNCEEAICKAGCDPVHGKCDRPGECECRPGWRGPLCNECMVYPGCKHGSCNGSAWKCVCDTNWGGILCDQDLNFCGTHEPCKHGGTCENTAPDKYRCTCAEGLSGEQCEIVEHPCATRPCRNGGTCTLKTSNRTQAQVYRTSHGRSNMGRPVRRSSSMRSLDHLRPEGQALNGSSSSGLVSLGSLQLQQQLAPDFTCDCAAGWTGPTCEINIDECAGGPCEHGGTCIDLIGGFRCECPPEWHGDVCQVDVNECEAPHSAGIAANALLTTTATAIIGSNLSSTALLAALTSAVASTSLAIGPCINAKECRNQPGSFACICKEGWGGVTCAENLDDCVGQCRNGATCIDLVNDYRCACASGFTGRDCETDIDECATSPCRNGGECVDMVGKFNCICPLGYSGSLCEEAKENCTPSPCLEGHCLNTPEGYYCHCPPDRAGKHCEQLRPLCSQPPCNEGCFANVSLATSATTTTTTTTTATTTRKMAKPSGLPCSGHGSCEMSDVGTFCKCHVGHTGTFCEHNLNECSPNPCRNGGICLDGDGDFTCECMSGWTGKRCSERATGCYAGQCQNGGTCMPGAPDKALQPHCRCAPGWTGLFCAEAIDQCRGQPCHNGGTCESGAGWFRCVCAQGFSGPDCRINVNECSPQPCQGGATCIDGIGGYSCICPPGRHGLRCEILLSDPKSACQNASNTISPYTALNRSQNWLDIALTGRTEDDENCNACVCENGTSRCTNLWCGLPNCYKVDPLSKSSNLSGVCKQHEVCVPALSETCLSSPCNVRGDCRALEPSRRVAPPRLPAKSSCWPNQAVVNENCARLTILLALERVGKGASVEGLCSLVRVLLAAQLIKKPASTFGQDPGMLMVLCDLKTGTNDTVELTVSSSKLNDPQLPVAVGLLGELLSSRQLNGIQRRKELELQHAKLAALTSIVEVKLETARVADGSGHSLLIGVLCGVFIVLVGFSVFISLYWKQRLAYRTSSGMNLTPSLDALRHEEEKSNNLQNEENLRRYTNPLKGSTSSLRAATGMELSLNPAPELAASAASSSALHRSQPLFPPCDFERELDSSTGLKQAHKRSSQILLHKTQNSDMRKNTVGSLDSPRKDFGKRSINCKSMPPSSGDEGSDVLATTVMV
notes: The tomato tag is an internal insertion in the intracellular domain; also called Ser+Tomato; Ser Bsp tom; not shown: fluorescent tomato tag (Shaner et al., 2004), INSERTED within the intracellular domain at the Bsp EI site of the Ser cDN
Take B1: in test [1], the binding result is on record as “binds”.

B2: wild type Drosophila Serrate (Ser), UAS-Ser transgene (ligand)
chain: B1 chain
notes: also called wild type Ser
In the case of B2, the binding result in test [2] was “binds”.
